Values of other authors as cited in paper PMC9147092.
Where two headings read alike, the source gives them in different places. One block for each substance: values may come before it.

What was measured:
[1] = target: BiP (Homo sapiens) (UniProt P11021)
[2] = target: BiP (Homo sapiens) (UniProt P11021); remark: listed apart in the source
[3] = target: BiP (Homo sapiens) (UniProt P11021); remark: listed apart in the source
[4] = target: ERdj2 (Homo sapiens) (UniProt Q9UGP8)
UniProt Q9UGP8, sequence (Q9UGP8 whole entry): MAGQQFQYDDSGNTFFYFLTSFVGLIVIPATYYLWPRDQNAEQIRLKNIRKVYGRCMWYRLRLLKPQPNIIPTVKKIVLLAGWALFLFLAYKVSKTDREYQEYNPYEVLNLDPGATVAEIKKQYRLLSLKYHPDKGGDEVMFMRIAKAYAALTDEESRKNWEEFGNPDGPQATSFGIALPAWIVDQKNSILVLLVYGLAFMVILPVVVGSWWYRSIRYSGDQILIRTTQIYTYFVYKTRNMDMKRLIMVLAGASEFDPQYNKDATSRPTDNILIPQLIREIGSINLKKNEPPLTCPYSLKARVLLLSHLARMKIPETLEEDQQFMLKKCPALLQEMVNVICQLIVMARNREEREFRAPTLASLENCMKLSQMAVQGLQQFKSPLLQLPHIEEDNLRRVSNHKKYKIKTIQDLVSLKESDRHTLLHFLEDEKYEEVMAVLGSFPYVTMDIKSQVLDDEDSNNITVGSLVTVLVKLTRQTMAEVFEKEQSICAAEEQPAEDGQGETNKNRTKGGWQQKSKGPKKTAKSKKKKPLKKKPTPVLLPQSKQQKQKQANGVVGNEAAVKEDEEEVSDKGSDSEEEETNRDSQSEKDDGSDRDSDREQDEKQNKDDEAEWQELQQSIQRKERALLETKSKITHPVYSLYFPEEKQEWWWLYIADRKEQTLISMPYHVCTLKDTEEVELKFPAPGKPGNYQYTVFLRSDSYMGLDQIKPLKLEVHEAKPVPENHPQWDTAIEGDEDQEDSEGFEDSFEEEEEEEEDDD

UniProt P11021, sequence (P11021 19-654): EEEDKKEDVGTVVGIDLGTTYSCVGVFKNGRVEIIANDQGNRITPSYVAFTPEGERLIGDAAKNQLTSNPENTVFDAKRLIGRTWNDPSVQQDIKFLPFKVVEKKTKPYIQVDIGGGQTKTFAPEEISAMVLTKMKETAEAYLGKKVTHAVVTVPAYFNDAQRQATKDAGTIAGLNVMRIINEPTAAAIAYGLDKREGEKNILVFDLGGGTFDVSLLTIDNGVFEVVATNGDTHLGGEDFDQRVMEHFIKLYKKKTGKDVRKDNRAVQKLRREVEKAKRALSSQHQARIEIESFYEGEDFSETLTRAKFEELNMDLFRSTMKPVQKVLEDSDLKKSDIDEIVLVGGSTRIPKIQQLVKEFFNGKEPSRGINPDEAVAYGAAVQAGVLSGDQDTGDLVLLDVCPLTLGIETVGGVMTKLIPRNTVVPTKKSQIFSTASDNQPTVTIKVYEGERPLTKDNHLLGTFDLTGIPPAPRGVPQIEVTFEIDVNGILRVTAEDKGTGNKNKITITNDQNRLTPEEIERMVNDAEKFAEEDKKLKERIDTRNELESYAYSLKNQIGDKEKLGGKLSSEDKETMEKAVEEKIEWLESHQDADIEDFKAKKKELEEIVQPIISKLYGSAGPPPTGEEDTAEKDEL

Kd [1]: 5000 nM
Substance: ERdj6 (from UniProt Q13217)

Kd [2]: 830 nM
Substance: PERK luminal domain (from UniProt Q9NZJ5)

Kd [3]: 570 nM
Substance: ERdj1 (from UniProt Q96KC8)

Kd [4]: 5 nM
Substance: Sec62 (from UniProt Q99442)
